# Data reported in the supplement of paper PMC10065799, “High-throughput profiling of sequence recognition by tyrosine kinases and SH2 domains using bacterial peptide display” (eLife, 2023).
# Biological target: SHP2-C SH2;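 note: peptide library displayed on the E. coli surface as eCPX fusions, selected cells deep-sequenced, score is each peptide's frequency after selection divided by its frequency in the input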
# Assay: SH2 binding enrichment of the phosphorylated peptide, bacterial display (enrichment ratio); higher = better substrate or ligand; peptides without Tyr show the background
row,Sequence,SH2 binding enrichment
1,MNPPPYSQFLS [FGF23_Y154],0.489
2,LQFRNYQQLFD [MAN2A1_Y442_K440R],0.947
3,SWKRRYFLLWA [APBB1IP_Y331_R335W],0.646
4,ADRSCYDLSCR [GARS1_Y467_H472R],0.779
5,KNDSKYVVKGN [KIT_Y823_N822K],0.653
6,FSEVRYMKEPF [HIPK4_Y170_V171M_YF],0.646
7,VNFDDYTVNLG [GFPT1_Y367],0.715
8,DDSSAYCSVDE [BCKDHA_Y345_R346C],0.727
9,WASGIYFVPKG [APBB1IP_Y340_R335W_YF],1.17
10,VVLVSYVPSSQ [SH2B1_Y624],1.4
11,ISSLDYISKSK [VAV3_Y294_T298S],0.629
12,PIPAAYNRFDQ [CDC73_Y290_YF],0.648
13,RCYVYYYSYLL [PTEN_Y177_R173C],0.51
14,YSMGCYEFSLG [HMGCL_Y198_I200F],0.864
15,VDLIVYLRTNP [TK2_Y181],0.623
16,LEAVSYSSPYA [RNLS_Y190_R193P],1.84
17,ATGGFYSFGGG [KRT24_Y120_YF],0.569

row,Sequence,SH2 binding enrichment
1,PKGTGCIKTEL [STAT1_Y701_Y701C],0.73
2,GKVADYIPQLP [GLS_Y249_A254P],0.634
3,NTPNAYLRVNV [ADD2_Y440_T439A],1.12
4,EQKKFYNAMKN [SCN5A_Y1495_K1500N_YF],0.527
5,YQNGMYGLHQD [SGSH_Y89_H84Y],0.585
6,YPPTHYIRRVP [SLC4A11_Y820],0.596
7,SVTCTSSPALN [TP53_Y126_Y126S],0.603
8,LNCAGYCDALE [MTUS1_Y151],0.58
9,AIGYEYSEINI [SIGLEC12_Y588],1.58
10,VVEYGYEFFAK [PPP1CB_Y254_D252Y],0.675
11,TSNQEYLDVSM [FGFR1_Y766_L769V],0.696
12,CFSSEYHFVGG [CTSC_Y345_Y340C_YF],0.694
13,YAKSVYWDNTL [NUP107_Y296_E298D],0.9
14,VHNLDYYKQTT [FGFR3_Y647_K650Q],0.752
15,GISDEYHVIQH [GCDH_Y398_R402Q],0.567
16,HRDDGYMPMSP [IRS1_Y612_T608R],0.545

# Tested on: AncSZ;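 note: 11-residue human phosphosite peptides and single-mutation variants displayed on the E. coli surface, counted by deep sequencing, each peptide's frequency after selection divided by its frequency in the unselected input library; frequency after pTyr selection over input frequency; kinase dosed for 20-30% of maximal phosphorylation in three min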
# Assay: phosphorylation enrichment, bacterial display (enrichment ratio); higher = better substrate or ligand; peptides without Tyr show the background
row,Sequence,phosphorylation enrichment
1,MNPPPYSQFLS [FGF23_Y154],0.585
2,LQFRNYQQLFD [MAN2A1_Y442_K440R],2.02
3,SWKRRYFLLWA [APBB1IP_Y331_R335W],0.686
4,ADRSCYDLSCR [GARS1_Y467_H472R],0.849
5,KNDSKYVVKGN [KIT_Y823_N822K],0.52
6,FSEVRYMKEPF [HIPK4_Y170_V171M_YF],0.677
7,VNFDDYTVNLG [GFPT1_Y367],1.39
8,DDSSAYCSVDE [BCKDHA_Y345_R346C],1.32
9,WASGIYFVPKG [APBB1IP_Y340_R335W_YF],2.81
10,VVLVSYVPSSQ [SH2B1_Y624],0.784
11,ISSLDYISKSK [VAV3_Y294_T298S],0.648
12,PIPAAYNRFDQ [CDC73_Y290_YF],0.513
13,RCYVYYYSYLL [PTEN_Y177_R173C],1.42
14,YSMGCYEFSLG [HMGCL_Y198_I200F],2.47
15,VDLIVYLRTNP [TK2_Y181],1.12
16,LEAVSYSSPYA [RNLS_Y190_R193P],1.81
17,ATGGFYSFGGG [KRT24_Y120_YF],0.678

row,Sequence,phosphorylation enrichment
1,PKGTGCIKTEL [STAT1_Y701_Y701C],1.05
2,GKVADYIPQLP [GLS_Y249_A254P],0.796
3,NTPNAYLRVNV [ADD2_Y440_T439A],0.868
4,EQKKFYNAMKN [SCN5A_Y1495_K1500N_YF],0.458
5,YQNGMYGLHQD [SGSH_Y89_H84Y],0.874
6,YPPTHYIRRVP [SLC4A11_Y820],0.754
7,SVTCTSSPALN [TP53_Y126_Y126S],1.3
8,LNCAGYCDALE [MTUS1_Y151],1.19
9,AIGYEYSEINI [SIGLEC12_Y588],1.44
10,VVEYGYEFFAK [PPP1CB_Y254_D252Y],2.57
11,TSNQEYLDVSM [FGFR1_Y766_L769V],1.15
12,CFSSEYHFVGG [CTSC_Y345_Y340C_YF],2.64
13,YAKSVYWDNTL [NUP107_Y296_E298D],0.848
14,VHNLDYYKQTT [FGFR3_Y647_K650Q],0.934
15,GISDEYHVIQH [GCDH_Y398_R402Q],1.64
16,HRDDGYMPMSP [IRS1_Y612_T608R],0.785
